According to US11230719B2, “Retroviral vector having immune-stimulating activity” (DENOVO BIOPHARMA LLC, priority 2014, dated 2022):

Legend:
[1] = system: HA-L2g cells transduced with pBA9b-hIFNg-yCD2 vector; experiment: MTS cell viability of HA-L2g cells transduced with pBA9b-hIFNg-yCD2; format: cell-based, human
Experimental: The concentration PALA required to kill HA-L2g cells transduced with pBA9b-hIFNg-yCD2 vector is determined. Cells are seeded at 1e3 cells in 96-well plates the day before. At 24 hour post cell seeding, PALA at 1, 10, 50 and 100 μM are added to the culture for 4 consecutive days followed MTS assay to determine the cell viability. […] A range of cytosine concentrations are also determined (0.2, 1, 5 10 mM) in culture by performing the same experiment described above.

TGFβ1, 2 and 3 = TGFβ1, 2 and 3 gene expression (Taqman) in cancer cell lines before and after IFNγ treatment; format: cell-based, human; conditions: panel of cancer cell lines including glioma
Text: A panel of cancer cell lines including glioma cell lines were surveyed for their TGFβ1, 2 and 3 expression before and after IFNγ treatment using human TGF isoform-specific Taqman primers (Life Technology). […] Some expression more TGFβ1 and others express more TGFβ2. In all cases, TGFβ3 expression is low. In contrast to IDO1 and PDL1, TGFβ1, 2 and 3 expression is not induced by IFNγ.

IDO1 = IDO1 protein expression in glioma cell lines after IFNγ induction; format: cell-based, human; conditions: panel of glioma cell lines; level of induction varies
Text: A panel of glioma cell lines were surveyed for their IDO1 expression after IFNγ induction. […] GAPDH (anti-human GAPDH at 1:500, Cell Signaling) detection was included as a loading control.

PDL1 = experiment: PD-L1 cell surface expression in cancer cell lines before and after IFNγ induction; format: cell-based, human; conditions: panel of cancer cell lines including glioma
Text: Its expression can be further induced by IFNγ. A panel of cancer cell lines including glioma cell lines is surveyed for their PDL1 expression (anti-human PD-L1 antibody, eBioscience) before and after IFNγ induction.

CT-26 = experiment: mIFNg-induced MHC Class I upregulation in CT-26 cells (flow cytometry); format: cell-based, mouse; conditions: vs purified recombinant protein from E. coli
Experimental: (§1) To verify the bioactivity of recombinant hIFNg and mIFNg produced from the virus producer cell, upregulation of MHC Class I cell surface expression by flow cytometry was performed. Supernatant of known IFNg concentration were incubated with species-matched mouse colon carcinoma cell line, CT-26 or human fibrosarcoma cell line, HT1080. The degree of upregulation measured by mean fluorescent intensity (MFI) was compared to a standard which are purified recombinant protein expressed from E. coli. […] The recombinant hIFNg produced from the virus producer cells are 3-5 fold higher than that produced from E. coli (FIG. 2B). The difference is likely due to the differences in amino acid composition as well as glycosylation pattern.

HT1080 = experiment: hIFNg-induced MHC Class I upregulation in HT1080 cells (flow cytometry); format: cell-based, human; conditions: MFI
Experimental: as §1

CTLL-2 = experiment: IL-2 bioactivity, CTLL-2 proliferation (3H-thymidine incorporation); format: cell-based, mouse; conditions: produced by HA-L2 cells; vs recombinant IL-2 from E. coli
Experimental: CTLL-2 cell growth depends greatly on the presence of IL-2. The bioactivity of IL-2 is determined by the level of ^3H-thymidine incorporation into the DNA of proliferating cells. […] In addition, the level of CD expression from pBA9b-IFNg-yCD2 transduced HA-L2 cells is also detected by immunoblotting using an antibody against CD.

Nc1cc[nH]c(=O)n1 [cytosine]
cell viability with cytosine ([1]; 0.2, 1, 5, 10 mM): can tolerate cytosine in all concentrations tested

O=C(O)C[C@H](NC(=O)CP(=O)(O)O)C(=O)O [PALA, N-(phosphonacetyl)-L-aspartate]
cell viability with PALA ([1]; 1, 10, 50 and 100 μM, 4 consecutive days): sensitive to PALA at 10 μM and plateau at 50 μM

B1: IFNγ: interferon gamma used to induce IDO1 and PDL1 expression in cell lines (protein, UniProt P01579 24-161, looked up)
Interferon gamma: QDPYVKEAENLKKYFNAGHSDVADNGTLFLGILKNWKEESDRKIMQSQIVSFYFKLFKNFKDDQSIQKSVETIKEDMNVKFFNSNKKKRDDFEKLTNYSVTDLNVQRKAIHELIQVMAELSPAAKTGKRKRSQMLFRG
TGFβ1, 2 and 3 expression induced by IFNγ (TGFβ1, 2 and 3): not induced | IDO1 expression after IFNγ induction (IDO1): upregulated | PDL1 expression further induced by IFNγ (PDL1): most of the cells lines, but not all, tested here are responsive

B2: recombinant mIFNg produced by the virus producer cells: mouse IFNg in supernatant of virus producer cells (protein, UniProt P01580 23-155, looked up)
Interferon gamma: HGTVIESLESLNNYFNSSGIDVEEKSLFLDIWRNWQKDGDMKILQSQIISFYLRLFEVLKDNQAISNNISVIESHLITTFFSNSKAKKDAFMSIAKFEVNNPQVQRQAFNELIRVVHQLLPESSLRKRKRSRC
bioactivity (MHC Class I upregulation, MFI) (CT-26): comparable to that of recombinant mIFNg produced by E. coli

B3: recombinant hIFNg produced from the virus producer cells: human IFNg in supernatant of virus producer cells (protein, UniProt P01579 24-161, looked up)
Interferon gamma: B1 Interferon gamma
bioactivity higher than that produced from E. coli (HT1080): 3-5 fold

B4: mIL-2: recombinant mouse IL-2 produced by the HA-L2 cells (protein, UniProt P04351 21-169, looked up)
Interleukin-2: APTSSSTSSSTAEAQQQQQQQQQQQQHLEQLLMDLQELLSRMENYRNLKLPRMLTFKFYLPKQATELKDLQCLEDELGPLRHVLDLTQSKSFQLEDAENFISNIRVTVVKLKGSDNTFECQFDDESATVVDFLRRWIAFCQSIISTSPQ
IL-2 bioactivity (CTLL-2): comparable
